According to patent publication US11634470B2, “Integrin binding peptides and uses thereof” (Universiteit Twente, priority 2015, dated 2023):
Primed or numbered codes have the meaning given here. Where no end group is shown, it is not given here. PEG(6) = PEG(6) linker

What was measured:
α5β1 [1] = molecular target: T1, α5β1 (Homo sapiens, UniProt P08648); assay: ITGA5 peptide selection, overlapping fibronectin peptides displayed on membrane; assay type: binding; set-up: purchased R&D systems; conditions: peptides attached by C-terminal on membrane, 5 μg/ml α5β1
Procedure: Peptides were attached to their c-terminal site using stable linker. […] The peptide-displaying […] membrane was soaked in methanol for 1 minute and rinsed in Tris-buffered saline (TBS) and washed 3 times. Then, the membrane was blocked with 3% BSA in 0.05% TWEEN®-20 containing TBS (TBST) for 3 hours at room temperature. Then, the membrane was washed for 10 minutes with TBST and incubated with 5 μg/ml α5β1 human recombinant protein (R&D systems) in 3% BSA in TBST for 1 hour at room temperature and then overnight at 4° C. Subsequently, the membrane was washed 3 times with TBST. Thereafter, the bound receptor to the membrane was transferred to the PVDF membrane. To achieve this, first, the PVDF membrane was soaked in methanol for 1 minute and then blocked with 5% skimmed fat milk for 2 hours. Then, the membrane was incubated with primary anti-alpha5 integrin antibody (Sigma-Aldrich) for overnight in 5% skimmed milk. The membrane was washed 3 times with TBST and then incubated with anti-rabbit-HRP secondary antibody (Dako), washed and developed with chemiluminescence detection kit.

ITGA11 receptor (α11β1) = molecular target: T2, ITGA11 receptor (α11β1) (Homo sapiens, UniProt Q9UKX5); assay: Binding of FITC-labeled peptides to coated ITGA11 receptor; conditions: FITC-labeled peptide, 37° C. 1 hour
T2 construct: purchased R&D systems
Procedure: (§1) Purified ITGA11 receptor (α11β1; 100 μg/ml—stock; R&D systems) was diluted to 5 μg/ml with 1×PBS. 96-well ELISA White Maxisorb plate (Nunc) was coated with 50 μl of 5 μg/ml ITGA11 (or as control α5β1) receptor for overnight at 4° C. Then, wells were blocked for 3-4 hours with 200 μl of blocking buffer (1×PBS containing 5% BSA). Wells were washed three times with 200 μl of washing buffer (1×PBS containing 0.5% BSA and 0.05% TWEEN®-20). Peptides conjugated with FITC were diluted to different concentrations in washing buffer and then added to the plate and incubated at 37° C. for 1 hour. In addition, the binding of the peptide was blocked by co-incubation with 10× higher amount of unlabeled peptide. Subsequently, wells were washed three times with washing buffer. Then, 100 μl of 1×PBS was added and plates were read at 485 nm/520 nm with a fluorescence plate reader.

α5β1 [2] = molecular target: T1, α5β1; assay: Binding of FITC-labeled peptide to coated control receptor α5β1; conditions: similar to empty wells
Procedure: as §1

[3] = test system: primary human pancreatic stellate cells; assay: AXI-I-PEG-FITC binding assay, flow cytometry; assay type: cell-based; set-up: unit not given here; conditions: suspended PSCs, 1 hour at 4° C.
Procedure: PSCs were trypsinized using trypsin-EDTA solution and cell numbers were diluted to 4×10^4 cells/ml. Cells were incubated at 37° C. for 30 minutes to allow receptor recovery. Then different concentrations of AXI-I-FITC was added to the cells containing 2% FBS and incubated at 4° C. for 60 minutes. Thereafter, cells were centrifuged at 1500 rpm at 4° C. for 10 minutes. Supernatant was removed and cells were washed 3 times with PBS and then were fixed with 0.5% formaldehyde for 1 hour at 4° C. and measured with flow cytometry for fluorescence.

[4] = test system: human skin fibroblasts BJhtert; assay: Scratch (wound) migration of human skin fibroblasts; assay type: cell-based; conditions: after 24 hours
Procedure: FIG. 15: Effect of peptides on migration of human fibroblasts. Human skin fibroblasts BJhtert were grown to full confluency and a scratch (wound) was made and effects of peptides were determined on the wound closure (migration of fibroblasts) after 24 hours. […] (1. SEQ ID NO:8, 2. SEQ ID NO: 11, 3. SEQ ID NO:62, 4. SEQ ID NO:63, 5. SEQ ID NO: 64, 6. SEQ ID NO:76, and 7. SEQ ID NO:68.)

α5β1 [5] = molecular target: T1, α5β1; assay: Peptide binding study on the coated receptor; conditions: for binding to the coated α5β1 receptor: PEG(6)-Fluorescein labeled peptide
Procedure: The purified human recombinant α5β1 or α11β1 receptors (5 μg/ml in PBS) were coated onto 96-well ELISA plates (White Maxisorb-Nunc) by incubating overnight at 4° C. Then, the wells were blocked with blocking buffer (5% (w/v) BSA, 150 mM Nacl, 25 mM Tris) for 2 hours at room temperature. Then, the wells were washed three times with 200 μl of washing buffer (150 mM Nacl, 25 mM Tris-base, 0.005% TWEEN® 20, 0.5% BSA). Thereafter, the peptides conjugated with PEG(6)-FITC were diluted to different concentrations in washing buffer. For the competitive studies, the wells were co-incubated with 10-fold higher amount of unlabeled peptides. The plates were incubated at 37° C. for 60 minutes. Then, the wells were washed three times with washing buffer and subsequently, the plates were read for the fluorescein signal Ex/Em 485 nm/520 nm using a fluorescent plate reader (Perkin Elmer).

[6] = test system: LX2 hepatic stellate cells; assay: Cell binding experiment, fluorescence microscopy; assay type: cell-based, human; conditions: FITC-labeled peptides 20 μM, 2 hours, room temperature
Procedure: Human hepatic stellate cells (LX2, 15,000 cells/well) were cultured overnight in permanox Lab-Tek 8-well chamber slides (Nunc). After overnight incubation, cells were washed 3× with 0.5% BSA containing medium and then FITC-labeled peptides (20 μM) was added and incubated at room temperature for 2 hours with intermittent shaking. The cells were then washed 3× with 0.5% BSA containing medium and 2×PBS. Thereafter, cells were fixed with 4% paraformaldehyde (prepared in 1×PBS) for 20 minutes followed by 3 times washing with 1×PBS. Cells were then mounted with mounting medium with DAPI (vector labs) and visualized under the fluorescence microscope (Nikon E600). For phalloidin staining, cells after fixation were incubated with TRITC-conjugated Phalloidin (1:1000 prepared in 1×PBS containing 0.1% TRITON-X® 100) for 10 minutes. Then, cells were washed thrice with PBS and mounted with DAPI-containing mounting medium.

[7] = test system: human primary pancreatic stellate cells (PSCs); assay: TGF-β1 activation of pancreatic stellate cells; assay type: cell-based; conditions: TGFβ1-activated PSCs, immunostaining, 20 μM
Procedure: Human primary pancreatic stellate cells (PSCs) were obtained from ScienCell (Carlsbad, Calif.) and were cultured in specified medium provided by the manufacturer, supplemented with penicillin/streptomycin. Cells were used less than the passage 9 and seeded on a Poly-L-Lysine-coated plate.
PSCs were seeded into a 12-well plate (6×10^4 cells/well, for gene expression) or 24-well plate (for staining) in complete medium. After 24 hours, cells were starved in serum-free medium and then after 24 hours, they were added with TGF-β1 (5 ng/ml) with/without the peptide.
After 24 hours of incubation, cells were lysed with the lysis buffer and total RNA was isolated using the GenElute™ Mammalian Total RNA Miniprep Kit. The RNA amount was measured by a NanoDrop® ND-1000 Spectrophotometer (Wilmington, Del.). Subsequently, cDNA was synthesized with iScript™ cDNA Synthesis Kit (BioRad, Veenendaal, The Netherlands). 10 ng cDNA was used for each PCR reaction. The real-time qPCR primers for human αSMA and RPS18 were purchased from Sigma (The Netherlands). Gene expression levels were normalized to the expression of the house-keeping gene RPS18s.
For immunostaining, the cells were washed and fixed with acetone-methanol and processed for immunocytochemical staining.
For immunocytostaining, cells were fixed with acetone-methanol (1:1) at −20° C. for 30 minutes and then dried and rehydrated for 10 minutes. […]

α11β1 receptor = α11β1 receptor (Homo sapiens, UniProt Q9UKX5); assay: Peptide microarray binding, alanine scanning and chain length scan of AXI-I; conditions: receptor 10 μg/ml
Procedure: Peptide microarray was prepared by conjugating peptides at their N-terminal to a glass slide using a PEG linker. […] For the binding studies, the peptide array was blocked with 3% BSA in TBST for 2 hours. Then the array slide was washed 5 times in TBST and subsequently incubated with the target receptor (α11β1, 10 μg/ml dissolved in PBS) for 1 hour at 37° C. The slides were washed with TBST and then incubated with primary antibody (1 μg/ml) against ITGA11 for 1 hour at 37° C. Then slides were washed and incubated with fluorescent dye labeled secondary antibodies for 30 minutes. The slides were washed with TBST and water and then dried and scanned with a microarray scanner to detect binding of the peptides. The enlightened spots were analyzed using ImageJ software. To determine the unspecific binding, a peptide array was incubated with only primary and secondary antibodies without the receptor incubation step. Then, the signal of unspecific binding was subtracted from the total binding to calculate specific binding.

T1 sequence (P08648 42-894 limits assumed): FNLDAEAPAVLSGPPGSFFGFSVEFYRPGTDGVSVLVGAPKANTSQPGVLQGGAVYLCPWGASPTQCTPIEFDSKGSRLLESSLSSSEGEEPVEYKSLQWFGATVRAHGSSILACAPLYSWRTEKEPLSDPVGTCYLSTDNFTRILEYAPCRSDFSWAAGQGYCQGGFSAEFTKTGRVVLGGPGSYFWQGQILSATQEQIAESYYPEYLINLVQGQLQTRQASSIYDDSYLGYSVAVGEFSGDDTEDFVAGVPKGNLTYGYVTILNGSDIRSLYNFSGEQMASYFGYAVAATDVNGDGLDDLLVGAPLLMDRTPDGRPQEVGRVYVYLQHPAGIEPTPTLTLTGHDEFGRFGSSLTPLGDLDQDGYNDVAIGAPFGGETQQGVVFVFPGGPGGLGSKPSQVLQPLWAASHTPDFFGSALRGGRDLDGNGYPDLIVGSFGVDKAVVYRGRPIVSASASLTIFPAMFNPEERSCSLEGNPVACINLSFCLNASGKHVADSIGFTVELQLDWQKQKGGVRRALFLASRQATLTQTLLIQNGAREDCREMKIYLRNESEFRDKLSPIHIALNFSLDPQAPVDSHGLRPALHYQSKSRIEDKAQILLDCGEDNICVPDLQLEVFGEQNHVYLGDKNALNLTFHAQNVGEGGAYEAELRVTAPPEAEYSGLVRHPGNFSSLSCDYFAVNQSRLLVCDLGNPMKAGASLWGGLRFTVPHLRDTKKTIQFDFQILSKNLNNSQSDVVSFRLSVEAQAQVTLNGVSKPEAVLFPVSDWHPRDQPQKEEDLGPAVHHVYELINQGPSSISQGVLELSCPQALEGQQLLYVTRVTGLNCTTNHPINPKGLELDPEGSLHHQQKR
T1 sequence (P08648 895-995 limits assumed): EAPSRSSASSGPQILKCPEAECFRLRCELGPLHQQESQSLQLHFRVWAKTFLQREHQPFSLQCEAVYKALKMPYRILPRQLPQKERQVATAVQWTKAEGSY
T1 sequence (P05556 21-728 partner limits assumed): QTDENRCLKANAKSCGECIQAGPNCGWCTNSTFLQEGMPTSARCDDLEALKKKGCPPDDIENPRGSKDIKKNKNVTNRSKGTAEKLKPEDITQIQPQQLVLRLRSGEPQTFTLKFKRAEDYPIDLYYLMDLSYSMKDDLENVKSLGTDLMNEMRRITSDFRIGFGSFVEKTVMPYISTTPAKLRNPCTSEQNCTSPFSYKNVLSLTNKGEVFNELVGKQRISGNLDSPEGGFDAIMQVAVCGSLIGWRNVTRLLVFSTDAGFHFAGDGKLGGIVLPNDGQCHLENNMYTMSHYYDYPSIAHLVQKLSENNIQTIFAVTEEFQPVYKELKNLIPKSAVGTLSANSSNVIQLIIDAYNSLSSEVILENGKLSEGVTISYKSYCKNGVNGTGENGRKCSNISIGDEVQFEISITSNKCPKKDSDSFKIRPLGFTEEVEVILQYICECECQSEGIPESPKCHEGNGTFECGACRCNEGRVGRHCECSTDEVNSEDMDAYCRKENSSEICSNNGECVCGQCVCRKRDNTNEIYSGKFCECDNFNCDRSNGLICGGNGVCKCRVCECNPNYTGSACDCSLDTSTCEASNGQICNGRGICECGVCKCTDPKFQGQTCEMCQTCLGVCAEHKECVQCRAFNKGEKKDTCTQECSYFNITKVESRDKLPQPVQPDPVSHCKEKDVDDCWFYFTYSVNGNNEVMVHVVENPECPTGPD
α11β1 receptor, sequence (Q9UKX5 23-1141 limits assumed): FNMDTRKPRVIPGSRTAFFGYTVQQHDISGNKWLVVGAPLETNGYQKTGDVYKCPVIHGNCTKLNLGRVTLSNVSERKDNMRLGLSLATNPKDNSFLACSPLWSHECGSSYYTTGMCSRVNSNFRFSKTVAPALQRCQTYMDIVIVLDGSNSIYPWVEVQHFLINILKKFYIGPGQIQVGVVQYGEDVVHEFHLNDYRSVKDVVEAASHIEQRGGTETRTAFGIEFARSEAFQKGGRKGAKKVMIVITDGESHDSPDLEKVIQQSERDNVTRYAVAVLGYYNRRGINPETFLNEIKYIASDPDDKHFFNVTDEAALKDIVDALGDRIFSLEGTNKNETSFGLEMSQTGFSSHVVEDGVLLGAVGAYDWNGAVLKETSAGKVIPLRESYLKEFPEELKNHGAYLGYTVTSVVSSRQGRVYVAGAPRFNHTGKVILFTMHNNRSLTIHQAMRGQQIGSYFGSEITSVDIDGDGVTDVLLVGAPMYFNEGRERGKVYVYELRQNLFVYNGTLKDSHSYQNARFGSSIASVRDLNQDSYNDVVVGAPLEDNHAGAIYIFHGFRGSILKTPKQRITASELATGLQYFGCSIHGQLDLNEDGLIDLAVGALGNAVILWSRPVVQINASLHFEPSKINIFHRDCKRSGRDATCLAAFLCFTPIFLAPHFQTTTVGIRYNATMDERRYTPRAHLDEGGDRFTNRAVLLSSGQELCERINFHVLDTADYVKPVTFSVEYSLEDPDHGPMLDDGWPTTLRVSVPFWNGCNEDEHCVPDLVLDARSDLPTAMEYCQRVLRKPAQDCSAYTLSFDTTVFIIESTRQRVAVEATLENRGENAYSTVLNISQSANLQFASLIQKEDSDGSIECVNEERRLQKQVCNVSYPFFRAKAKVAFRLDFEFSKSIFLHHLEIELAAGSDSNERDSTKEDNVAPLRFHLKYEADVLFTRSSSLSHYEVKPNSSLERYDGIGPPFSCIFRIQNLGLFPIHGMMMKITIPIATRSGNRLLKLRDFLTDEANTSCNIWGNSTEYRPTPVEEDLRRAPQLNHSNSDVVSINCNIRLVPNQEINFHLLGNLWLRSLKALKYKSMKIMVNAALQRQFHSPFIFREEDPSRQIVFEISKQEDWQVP
α11β1 receptor, sequence (P05556 21-728 partner limits assumed): as the sequence (P05556 21-728 partner limits assumed) above
T2 sequence (Q9UKX5 23-1141 limits assumed): as the sequence (Q9UKX5 23-1141 limits assumed) above
T2 sequence (P05556 21-728 partner limits assumed): as the sequence (P05556 21-728 partner limits assumed) above

ITANSFTVHWIA [Seq 1]
binding to the α5β1 receptor (signal strength) (α5β1 [1]): ITANSFTVHWIA-weak

AXI-I-FITC: AXI-I peptide labeled with PEG(6)-FITC (SGLTEWLRWFNS; also: labeled with PEG(6)-FITC, site not given here)
binding to coated ITGA11 (α11β1) receptor (ITGA11 receptor (α11β1)): bound to the ITGA11 receptor specifically | binding to irrelevant receptor α5β1 (α5β1 [2]): very low binding | concentration at which binding reached plateau [3]: 20

VALNGREESPLL [Seq 2]
binding to the α5β1 receptor (signal strength) (α5β1 [1]): VALNGREESPLL-very weak

TNLLVRYSPVKN [Seq 7]
binding to the α5β1 receptor (signal strength) (α5β1 [1]): TNLLVRYSPVKN-moderate

SIELTNLLVRYS [Seq 6]
binding to the α5β1 receptor (signal strength) (α5β1 [1]): SIELTNLLVRYS-moderate

TTVRYYRITYGE (integrin binding peptide) [Seq 3]
binding to the α5β1 receptor (signal strength) (α5β1 [1]): TTVRYYRITYGE-strong

AV3.3: AV3 variant of FIG. 15 Panel B; possibly third listed peptide, SEQ ID NO:62 (RAYRITY; ITGA5 binding peptide)
reduction on migration [4]: about 30%

YYRITYGETGGN: YYRITYGETGGN with PEG(6)-Fluorescein introduced at the N-terminal side of the peptide (not fully specified (N-terminus))
binding to the coated α5β1 receptor (α5β1 [5]): no binding was observed

YYRITYGETGGN (SEQ ID NO:56)-K-PEG(6)-Fluorescein (YYRITYGETGGNK-{PEG(6)-Fluorescein}) [nAV2-FITC]
binding to LX2 hepatic stellate cells [6]: clearly bound to these cells

YYRITYGETGGN (ITGA5 binding peptide) [nAV2]
binding to the coated α5β1 receptor (α5β1 [5]): good binding | blocking of nAV2-PEG-fluorescein binding to coated α5β1 by excess unlabeled peptide (α5β1 [5]; excess (10-fold) of unlabeled peptide): blocked | binding to the α5β1 receptor (signal strength) (α5β1 [1]): YYRITYGETGGN-very strong

RYYRITYC (integrin binding peptide) [AV3-cys]
expression of fibrotic markers α-SMA, Col-1a1 and vimentin [7]: clearly inhibited the expression of these biomarkers | migration of fibroblasts (wound closure) [4]: significantly inhibited the migration of fibroblasts

LTEWLRWF (ITGA11 binding peptide)
binding to the α11β1 receptor on peptide microarray (α11β1 receptor): strongest binding

SFATWTPNFERN (integrin binding peptide) [AXI-II]
binding to LX2 hepatic stellate cells [6]: bound to the stellate cells

GDSPASSKPISI [Seq 5]
binding to the α5β1 receptor (signal strength) (α5β1 [1]): GDSPASSKPISI-moderate
